Residue numbers refer to the chain shown, from its start.
B1: H183/L072 VL Q27H (antibody, name in Kabat numbering, V domains shown)
VH: QVQLVESGGGLVQPGRSLRLSCAASGFTFSNAWMHWVRQAPGKGLEWVAQIKDKGNAYAAYYAPSVKGRFTISRDDSKNSIYLQMNSLKTEDTAVYYCHYVHYASASTVLPAFGVDAWGQGTTVTVSS
VL: DIVMTQSPLSLPVTPGEPASISCQASHELVHMNRNTYLHWYQQKPGQAPRLLIYKVSNRFPGVPDRFSGSGSGTDFTLKISRVEAEDVGVYYCAQGTSVPFTFGQGTKLEIK
notes: Dual-Ig
B2: H183/L072 VL Q27P (antibody, name in Kabat numbering, V domains shown)
VH: B1 VH
VL: B1 VL with H27P
notes: Dual-Ig
B3: H183/L072 VL R29E (antibody, name in Kabat numbering, V domains shown)
VH: B1 VH
VL: B1 VL with H27Q, R34E
notes: Dual-Ig
B4: H183/L072 VL Q90A (antibody, name in Kabat numbering, V domains shown)
VH: B1 VH
VL: B1 VL with H27Q, Q95A
notes: Dual-Ig
B5: H183/L072 VL Q27M (antibody, name in Kabat numbering, V domains shown)
VH: B1 VH
VL: B1 VL with H27M
notes: Dual-Ig
B6: H183/L072 VL R29L (antibody, name in Kabat numbering, V domains shown)
VH: B1 VH
VL: B1 VL with H27Q, R34L
notes: Dual-Ig
B7: H183/L072 VL Q27Y (antibody, name in Kabat numbering, V domains shown)
VH: B1 VH
VL: B1 VL with H27Y
notes: Dual-Ig
B8: H183/L072 VL Q90V (antibody, name in Kabat numbering, V domains shown)
VH: B1 VH
VL: B1 VL with H27Q, Q95V
notes: Dual-Ig
B9: H183/L072 VL R29D (antibody, name in Kabat numbering, V domains shown)
VH: B1 VH
VL: B1 VL with H27Q, R34D
notes: Dual-Ig
B10: H183/L072 VL R29N (antibody, name in Kabat numbering, V domains shown)
VH: B1 VH
VL: B1 VL with H27Q, R34N
notes: Dual-Ig
B11: H183/L072 VL R29K (antibody, name in Kabat numbering, V domains shown)
VH: B1 VH
VL: B1 VL with H27Q, R34K
notes: Dual-Ig
B12: H183/L072 VL Q90F (antibody, name in Kabat numbering, V domains shown)
VH: B1 VH
VL: B1 VL with H27Q, Q95F
notes: Dual-Ig
B13: H183/L072 VL Q90D (antibody, name in Kabat numbering, V domains shown)
VH: B1 VH
VL: B1 VL with H27Q, Q95D
notes: Dual-Ig
B14: H183/L072 VL Q90M (antibody, name in Kabat numbering, V domains shown)
VH: B1 VH
VL: B1 VL with H27Q, Q95M
notes: Dual-Ig
B15: H183/L072 VL Q27W (antibody, name in Kabat numbering, V domains shown)
VH: B1 VH
VL: B1 VL with H27W
notes: Dual-Ig
B16: H183/L072 VL Q90E (antibody, name in Kabat numbering, V domains shown)
VH: B1 VH
VL: B1 VL with H27Q, Q95E
notes: Dual-Ig
B17: H183/L072 VL Q90R (antibody, name in Kabat numbering, V domains shown)
VH: B1 VH
VL: B1 VL with H27Q, Q95R
notes: Dual-Ig
B18: H183/L072 VL Q27N (antibody, name in Kabat numbering, V domains shown)
VH: B1 VH
VL: B1 VL with H27N
notes: Dual-Ig
B19: H183/L072 VL Q27L (antibody, name in Kabat numbering, V domains shown)
VH: B1 VH
VL: B1 VL with H27L
notes: Dual-Ig
B20: H183/L072 VL R29G (antibody, name in Kabat numbering, V domains shown)
VH: B1 VH
VL: B1 VL with H27Q, R34G
notes: Dual-Ig
B21: H183/L072 VL Q27I (antibody, name in Kabat numbering, V domains shown)
VH: B1 VH
VL: B1 VL with H27I
notes: Dual-Ig
B22: H183/L072 VL Q90W (antibody, name in Kabat numbering, V domains shown)
VH: B1 VH
VL: B1 VL with H27Q, Q95W
notes: Dual-Ig
B23: H183/L072 VL R29M (antibody, name in Kabat numbering, V domains shown)
VH: B1 VH
VL: B1 VL with H27Q, R34M
notes: Dual-Ig
B24: H183/L072 VL Q27K (antibody, name in Kabat numbering, V domains shown)
VH: B1 VH
VL: B1 VL with H27K
notes: Dual-Ig
B25: H183/L072 VL R29T (antibody, name in Kabat numbering, V domains shown)
VH: B1 VH
VL: B1 VL with H27Q, R34T
notes: Dual-Ig
B26: H183/L072 VL Q27T (antibody, name in Kabat numbering, V domains shown)
VH: B1 VH
VL: B1 VL with H27T
notes: Dual-Ig
B27: H183/L072 VL Q27S (antibody, name in Kabat numbering, V domains shown)
VH: B1 VH
VL: B1 VL with H27S
notes: Dual-Ig
B28: H183/L072 VL Q90T (antibody, name in Kabat numbering, V domains shown)
VH: B1 VH
VL: B1 VL with H27Q, Q95T
notes: Dual-Ig
B29: H183/L072 VL Q90L (antibody, name in Kabat numbering, V domains shown)
VH: B1 VH
VL: B1 VL with H27Q, Q95L
notes: Dual-Ig
B30: H183/L072 VL R29I (antibody, name in Kabat numbering, V domains shown)
VH: B1 VH
VL: B1 VL with H27Q, R34I
notes: Dual-Ig
B31: H183/L072 VL R29A (antibody, name in Kabat numbering, V domains shown)
VH: B1 VH
VL: B1 VL with H27Q, R34A
notes: Dual-Ig
B32: H183/L072 VL R29Q (antibody, name in Kabat numbering, V domains shown)
VH: B1 VH
VL: B1 VL with H27Q, R34Q
notes: Dual-Ig
B33: H183/L072 VL Q90I (antibody, name in Kabat numbering, V domains shown)
VH: B1 VH
VL: B1 VL with H27Q, Q95I
notes: Dual-Ig
B34: H183/L072 VL R29S (antibody, name in Kabat numbering, V domains shown)
VH: B1 VH
VL: B1 VL with H27Q, R34S
notes: Dual-Ig
B35: H183/L072 VL R29V (antibody, name in Kabat numbering, V domains shown)
VH: B1 VH
VL: B1 VL with H27Q, R34V
notes: Dual-Ig
B36: H183/L072 VL R29F (antibody, name in Kabat numbering, V domains shown)
VH: B1 VH
VL: B1 VL with H27Q, R34F
notes: Dual-Ig
B37: H183/L072 VL Q90H (antibody, name in Kabat numbering, V domains shown)
VH: B1 VH
VL: B1 VL with H27Q, Q95H
notes: Dual-Ig
B38: H183/L072 VL Q90N (antibody, name in Kabat numbering, V domains shown)
VH: B1 VH
VL: B1 VL with H27Q, Q95N
notes: Dual-Ig
B39: H183/L072 VL Q90S (antibody, name in Kabat numbering, V domains shown)
VH: B1 VH
VL: B1 VL with H27Q, Q95S
notes: Dual-Ig
B40: H183/L072 VL Q90G (antibody, name in Kabat numbering, V domains shown)
VH: B1 VH
VL: B1 VL with H27Q, Q95G
notes: Dual-Ig
B41: H183/L072 VL Q27R (antibody, name in Kabat numbering, V domains shown)
VH: B1 VH
VL: B1 VL with H27R
notes: Dual-Ig
B42: H183/L072 VL R29H (antibody, name in Kabat numbering, V domains shown)
VH: B1 VH
VL: B1 VL with H27Q, R34H
notes: Dual-Ig
B43: H183/L072 VL Q90K (antibody, name in Kabat numbering, V domains shown)
VH: B1 VH
VL: B1 VL with H27Q, Q95K
notes: Dual-Ig
B44: H183/L072 VL R29P (antibody, name in Kabat numbering, V domains shown)
VH: B1 VH
VL: B1 VL with H27Q, R34P
notes: Dual-Ig
B45: H183/L072 VL Q27V (antibody, name in Kabat numbering, V domains shown)
VH: B1 VH
VL: B1 VL with H27V
notes: Dual-Ig
B46: H183/L072 VL Q90P (antibody, name in Kabat numbering, V domains shown)
VH: B1 VH
VL: B1 VL with H27Q, Q95P
notes: Dual-Ig

biological target: T1, Human CD137 ECD (human); test: Biacore SPR, vs parent H183/L072
T1 construct: entry includes C-terminal His-tag and biotin acceptor peptide; also called human CD137 extracellular domain; 4-1BB
T1 sequence (chain, as listed by the source limits assumed): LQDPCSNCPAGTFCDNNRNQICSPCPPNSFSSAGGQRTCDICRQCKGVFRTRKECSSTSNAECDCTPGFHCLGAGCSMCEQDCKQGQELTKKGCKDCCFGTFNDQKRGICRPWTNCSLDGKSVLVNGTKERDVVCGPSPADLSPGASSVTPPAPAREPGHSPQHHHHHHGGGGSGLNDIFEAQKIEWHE

| Binder | fold change of affinity |
| --- | --- |
| B1 | 0.9 fold |
| B2 | 0.1 fold |
| B3 | 0.4 fold |
| B4 | 0 fold |
| B5 | 0.9 fold |
| B6 | 0.9 fold |
| B7 | 0.7 fold |
| B8 | 0 fold |
| B9 | 0.3 fold |
| B10 | 0.9 fold |
| B11 | 1.1 fold |
| B12 | 0 fold |
| B13 | 0 fold |
| B14 | 0 fold |
| B15 | 0.5 fold |
| B16 | 0 fold |
| B17 | 0 fold |
| B18 | 0.8 fold |
| B19 | 0.8 fold |
| B20 | 1.1 fold |
| B21 | 0.7 fold |
| B22 | 0 fold |
| B23 | 0.9 fold |

| Binder | fold change of affinity |
| --- | --- |
| B24 | 0.9 fold |
| B25 | 0.8 fold |
| B26 | 0.9 fold |
| B27 | 0.8 fold |
| B28 | 0 fold |
| B29 | 0 fold |
| B30 | 0.3 fold |
| B31 | 0.8 fold |
| B32 | 0.9 fold |
| B33 | 0 fold |
| B34 | 0.9 fold |
| B35 | 0.3 fold |
| B36 | 0.7 fold |
| B37 | 0.2 fold |
| B38 | 0 fold |
| B39 | 0 fold |
| B40 | 0 fold |
| B41 | 0.9 fold |
| B42 | 0.8 fold |
| B43 | 0 fold |
| B44 | 0.2 fold |
| B45 | 0.8 fold |
| B46 | 0 fold |
